Data: publication PMC4624954, “Delineating the Tes Interaction Site in Zyxin and Studying Cellular Effects of Its Disruption” (PLoS ONE, 2015)

Molecular target: T1, Zyx FL WT-GFP (human, UniProt Q15942 1-572)
T1 sequence (looked up): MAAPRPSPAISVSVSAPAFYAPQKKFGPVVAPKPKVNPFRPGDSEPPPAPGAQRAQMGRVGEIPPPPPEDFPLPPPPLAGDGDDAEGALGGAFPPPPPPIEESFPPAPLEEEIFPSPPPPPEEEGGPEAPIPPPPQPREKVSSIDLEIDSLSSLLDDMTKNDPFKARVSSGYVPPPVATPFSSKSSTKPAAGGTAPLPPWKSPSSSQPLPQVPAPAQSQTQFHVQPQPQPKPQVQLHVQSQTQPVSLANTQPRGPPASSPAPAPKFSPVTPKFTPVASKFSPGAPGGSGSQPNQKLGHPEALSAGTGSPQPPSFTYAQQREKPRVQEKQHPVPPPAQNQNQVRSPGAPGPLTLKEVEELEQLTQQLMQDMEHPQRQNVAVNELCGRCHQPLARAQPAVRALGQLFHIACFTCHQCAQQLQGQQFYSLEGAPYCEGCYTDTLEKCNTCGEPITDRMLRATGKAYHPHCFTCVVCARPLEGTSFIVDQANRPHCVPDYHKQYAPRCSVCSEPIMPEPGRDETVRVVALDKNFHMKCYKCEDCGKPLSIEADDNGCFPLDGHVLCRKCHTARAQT
Test: cell-based or functional assay

quantity of Tes FL-GFP in focal adhesions of zyxin-null fibroblasts with Zyx FL WT-DsRed against the DsRed control (confocal immunofluorescence): 2 fold
B1: Tes FL-GFP (natural protein, UniProt Q9UGI8 1-421, looked up)
chain: MDLENKVKKMGLGHEQGFGAPCLKCKEKCEGFELHFWRKICRNCKCGQEEHDVLLSNEEDRKVGKLFEDTKYTTLIAKLKSDGIPMYKRNVMILTNPVAAKKNVSINTVTYEWAPPVQNQALARQYMQMLPKEKQPVAGSEGAQYRKKQLAKQLPAHDQDPSKCHELSPREVKEMEQFVKKYKSEALGVGDVKLPCEMDAQGPKQMNIPGGDRSTPAAVGAMEDKSAEHKRTQYSCYCCKLSMKEGDPAIYAERAGYDKLWHPACFVCSTCHELLVDMIYFWKNEKLYCGRHYCDSEKPRCAGCDELIFSNEYTQAENQNWHLKHFCCFDCDSILAGEIYVMVNDKPVCKPCYVKNHAVVCQGCHNAIDPEVQRVTYNNFSWHASTECFLCSCCSKCLIGQKFMPVEGMVFCSVECKKRMS
